# Test results reported in patent publication CN115850461A (INST MICROBIOLOGY CAS, dated 2023).
# Experiments:
# [1] = biological target: T1, SARS-CoV-2 Prototype株(PT)RBD蛋白 (SARS-CoV-2 (Prototype), UniProt P0DTC2 319-541); assay: SPR, Biacore 8K; 74 captured on protein A chip, RBD as analyte
# T1 construct: domain: RBD
# SARS-CoV RBD蛋白 = SARS-CoV RBD蛋白 (SARS-CoV, UniProt P59594 306-527); assay: as above
# [2] = biological target: SARS-CoV-2 Prototype(PT)假病毒 S蛋白 (SARS-CoV-2 (Prototype), UniProt P0DTC2 14-1273); assay: cell-based or functional assay
# GD/1/2019 假病毒 S蛋白 = GD/1/2019 假病毒 S蛋白 (sarbecovirus GD/1/2019); assay: cell-based or functional assay
# WIV1 假病毒 S蛋白 = WIV1 假病毒 S蛋白 (sarbecovirus WIV1); assay: cell-based or functional assay
# RaTG13 假病毒 S蛋白 = RaTG13 假病毒 S蛋白 (sarbecovirus RaTG13); assay: cell-based or functional assay
# SARS-CoV 假病毒 S蛋白 = SARS-CoV 假病毒 S蛋白 (SARS-CoV, UniProt P59594 14-1255); assay: cell-based or functional assay
binder,measurement,setting,value
"沙贝病毒广谱人源中和抗体74 (antibody, V domains shown) VH: QVQLVQSGAQLKKPGESLKISCKGSGYNFSRYWIAWVRHMPGKGLEVMGIIYPDDSDTRYSPSVRGQVTISADKSTSIVYLQWSSLKASDTGIYYCARFGAGMTGMPRYFDTTRWFDPWGQGTQVTVSS VL: QSVLTQPPSVSGAPGQRVTISCLGGSSNIGAGYDVHWYQHLPGAAPKLLISGNSNRPSGVPARFSGSKSGTSASLAITGLQAEDEADYYCQSYDNDLSQVFGGGTKLTVLG",Kd,[1],< 0.0156 nM
same,koff,[1],9.52e-08 s⁻¹
same,kon,[1],640000 M⁻¹ s⁻¹
same,Kd,SARS-CoV RBD蛋白,< 0.00606 nM
same,koff,SARS-CoV RBD蛋白,6.47e-06 s⁻¹
same,kon,SARS-CoV RBD蛋白,1.65e+06 M⁻¹ s⁻¹
same,"IC50, 假病毒中和",[2],0.95 µg/mL
same,"IC50, 假病毒中和",GD/1/2019 假病毒 S蛋白,0.0028 µg/mL
same,"IC50, 假病毒中和",WIV1 假病毒 S蛋白,0.14 µg/mL
same,"IC50, 假病毒中和",RaTG13 假病毒 S蛋白,> 100 µg/mL
same,"IC50, 假病毒中和",SARS-CoV 假病毒 S蛋白,0.041 µg/mL
